Assay [1] deals with human respiratory epithelial A549 cells (HAdV-C5_GFP). Kind of assay: HAdV-C5_GFP transduction of A549 cells. In kind it is cell-based. The source says: For all transduction experiments, GFP-expressing vectors were used. The HAdV_GFP vector was purchased from Vector Development Laboratory. All mutated HAdV-C5 vectors were generated in the laboratory of A. Plückthun at the University of Zürich using the AdEasy system (Agilent) to contain an internal ribosome entry site (IRES)-luciferase (Luc)-GFP cassette for detection of transduction. To investigate the role of integrins in transduction, HAdV-C5-IRES-GFP with an intact RGD loop in the penton base protein (-DMNDHAIRGDTFATRAE-) and HAdV-C5-ΔRGD-IRES-GFP (-DMNDTSRAEEKRAE-), known not to bind integrins ([40]), were generated. To determine the binding site for hLF/hLfcin on the hexon protein, hexon-mutated vectors were produced with HVR-1 of HAdV-C5 ([43]) replaced with the corresponding sequence of HAdV-A31, as well as a HAdV-C5 vector mutated in HVR-7 ([44]).
For experiments in A549 cells, 15,000 cells were seeded into a black 96-well plate with a transparent bottom. For experiments with CHO-K1 cells, 20,000 cells were seeded. After 24 h, HAdV-C5 vectors was complexed with 2 μM Lfcin or with ∼12 μM (1 mg/ml) of LF and, after 60 min, added to the cells on ice. The blocking of CAR using soluble HAdV-C5 fiber knob was performed using 10 μg/ml of recombinant knob. After another 60 min, unbound complex was washed away using Dulbecco’s modified Eagle’s medium (DMEM), followed by final addition of fresh medium. After 44 h, the cells were fixed using 4% paraformaldehyde (PFA) for 10 min, and GFP expression was imaged using a Trophos system (Luminy Biotech Entreprises). For the hexon chimeric viruses, transduction was instead quantified by measuring the luciferase activity at 44 h postinfection using a Pierce luciferase glow assay kit.

In assay [2] the test system is A549 cells (HAdV-C5 virions). Kind of assay: 35S-labeled HAdV-C5 virion binding to A549 cells. It counts as cell-based, Human. The note with it: at this concentration (2 μM), Fig. 1C. On the procedure:
A549 cells were detached using phosphate-buffered saline (PBS) plus 0.05% EDTA with slow rocking at 37°C. Once detached, the cells were centrifuged at 1,500 × g for 5 min, resuspended in growth medium to about 2 × 10^6 cells/ml, and allowed to recover at 37°C, slowly rocking to keep the cells in suspension. While recovering, the HAdV-Lfcin complex was set up. Lfcin (2 μM), or an equivalent volume of PBS, was mixed with ^35S-labeled HAdV (15,000 particles/cell) in medium and left on ice at 4°C for 60 min. After 60 min of recovery, the cells were counted, and 150,000 viable cells were added to each well of a 96-V-shaped-well plate and centrifuged for 5 min at 1,500 × g. Once pelleted, the cells were resuspended in the HAdV-Lfcin solution or in HAdV-PBS solution and incubated on ice for 60 min at 4°C. After 60 min, the cells were pelleted and washed once in medium and once in PBS before the addition of scintillation fluid and quantification using a Wallac 1450 Microbeta counter (Trilux).

B1: bovine lactoferrin (protein, UniProt P24627 20-708, looked up)
Lactotransferrin: APRKNVRWCTISQPEWFKCRRWQWRMKKLGAPSITCVRRAFALECIRAIAEKKADAVTLDGGMVFEAGRDPYKLRPVAAEIYGTKESPQTHYYAVAVVKKGSNFQLDQLQGRKSCHTGLGRSAGWIIPMGILRPYLSWTESLEPLQGAVAKFFSASCVPCIDRQAYPNLCQLCKGEGENQCACSSREPYFGYSGAFKCLQDGAGDVAFVKETTVFENLPEKADRDQYELLCLNNSRAPVDAFKECHLAQVPSHAVVARSVDGKEDLIWKLLSKAQEKFGKNKSRSFQLFGSPPGQRDLLFKDSALGFLRIPSKVDSALYLGSRYLTTLKNLRETAEEVKARYTRVVWCAVGPEEQKKCQQWSQQSGQNVTCATASTTDDCIVLVLKGEADALNLDGGYIYTAGKCGLVPVLAENRKSSKHSSLDCVLRPTEGYLAVAVVKKANEGLTWNSLKDKKSCHTAVDRTAGWNIPMGLIVNQTGSCAFDEFFSQSCAPGADPKSRLCALCAGDDQGLDKCVPNSKEKYYGYTGAFRCLAEDVGDVAFVKNDTVWENTNGESTADWAKNLNREDFRLLCLDGTRKPVTEAQSCHLAVAPNHAVVSRSDRAAHVKQVLLHQQALFGKNGKNCPDKFCLFKSETKNLLFNDNTECLAKLGGRPTYEEYLGTEYVTAIANLKKCSTSPLLEACAFLTR
notes: bovine lactoferrin from cow milk (Sigma)
With B1, the “effect of LF on HAdV-C5_GFP transduction of A549 cells (in words)” value in assay [1] (LF 1 mg/ml preincubated with HAdV-C5_GFP, GFP imaging after 44 h (Fig. 1A)) was “Neither bLF nor rhLF affected HAdV-C5_GFP transduction”. Also, the “effect on HAdV-C5 transduction of A549 cells (in words)” value in assay [1] (at this concentration (2 μM), Fig. 1D) was “no or little effect”. The “effect on HAdV-C5 binding to A549 cells (in words)” value in assay [2] is reported as “no or little effect”.
